Assay [1] concerns the target T1, Ub-ADPr-TAMRA (fluorescent ester-linked Ub-ADPr conjugate) (human, UniProt P0CG47 1-76, C-terminus ester-linked to ADP-ribose (OP-ADPr, compound 8) that carries TAMRA (CuAAC with TAMRA-azide)).
T1 construct: ubiquitin, human (pET17b-Ub), wild type; observed mass of Ub 8564.4 Da; also called MARUbe probe; source: Ub purified as previously reported (Warren et al, 2023); coupled to OP-ADPr with DTX2, purified (Resource S), clicked to TAMRA-azide, purified (size exclusion)
Put plainly: fluorescence polarisation; TAMRA-labelled substrate fixed, unlabelled protein at a range of concentrations, mixed 1:1; 22 °C; 25 mM HEPES pH 7.4, 150 mM NaCl, 0.1 mg/mL BSA, 1 mM TCEP; 10 µL in 384-well plate; Kd by nonlinear regression of duplicate datasets (GraphPad Prism 10). As to conditions: both partners purified. A general note: Fluorescence polarisation rises when a labelled molecule tumbles more slowly, as on binding a larger partner.

A further assay deals with T2, Ub-Lys-TAMRA (UniProt P0CG47 1-76, Ub is isopeptide-linked to a TAMRA-labeled Lys-Gly dipeptide (at the Ub C-terminus)).
T2 construct: ubiquitin (the cut product of the polyubiquitin precursor); source: generated previously (Geurink et al, 2012)
The assay is described as above. The conditions noted are these: both partners purified.

The values that follow come from PMC12583694, “RNF114 and RNF166 exemplify reader-writer E3 ligases that extend K11 polyubiquitin onto sites of MARUbylation” (The EMBO Journal, 2025).

Positions count from the first letter of the chain named. Names and notes keep the numbering of the source.

B1: RNF166 (enzyme, human, UniProt Q96A37 1-237, looked up)
chain: MAMFRSLVASAQQRQPPAGPAGGDSGLEAQYTCPICLEVYHRPVAIGSCGHTFCGECLQPCLQVPSPLCPLCRLPFDPKKVDKATHVEKQLSSYKAPCRGCNKKVTLAKMRVHISSCLKVQEQMANCPKFVPVVPTSQPIPSNIPNRSTFACPYCGARNLDQQELVKHCVESHRSDPNRVVCPICSAMPWGDPSYKSANFLQHLLHRHKFSYDTFVDYSIDEEAAFQAALALSLSEN
notes: RNF166, human, RING-type E3 ubiquitin ligase; synthesised DNA cloned into pOPIN-B (N-terminal His-3C fusion); No tag cleavage described; source: E. coli Rosetta, purified (Cobalt resin, gel filtration)
Consider B1, for which, in assay [1], the binding result is given as “binds”.

B2: RNF114 ΔUIM^ext (domain or fragment, human, UniProt Q9Y508 1-200, looked up)
chain: MAAQQRDCGGAAQLAGPAAEADPLGRFTCPVCLEVYEKPVQVPCGHVFCSACLQECLKPKKPVCGVCRSALAPGVRAVELERQIESTETSCHGCRKNFFLSKIRSHVATCSKYQNYIMEGVKATIKDASLQPRNVPNRYTFPCPYCPEKNFDQEGLVEHCKLFHSTDTKSVVCPICASMPWGDPNYRSANFREHIQRRHR
notes: RNF114, human, truncated version that ends immediately after the Di19 domain at residue 200; No tag cleavage described; source: E. coli Rosetta, purified (Cobalt resin, gel filtration)
For B2, the binding result in assay [1] is “binds”.

B3: RNF138 (enzyme, human, UniProt Q8WVD3 1-245, looked up)
chain: MAEDLSAATSYTEDDFYCPVCQEVLKTPVRTTACQHVFCRKCFLTAMRESGAHCPLCRGNVTRRERACPERALDLENIMRKFSGSCRCCAKQIKFYRMRHHYKSCKKYQDEYGVSSIIPNFQISQDSVGNSNRSETSTSDNTETYQENTSSSGHPTFKCPLCQESNFTRQRLLDHCNSNHLFQIVPVTCPICVSLPWGDPSQITRNFVSHLNQRHQFDYGEFVNLQLDEETQYQTAVEESFQVNI
notes: RNF138, human, RING-type E3 ubiquitin ligase; synthesised DNA cloned into pOPIN-S3C (N-terminal His-SUMO-3C fusion); No tag cleavage described; source: E. coli Rosetta, purified (Cobalt resin, gel filtration; buffers at pH 8.0)
Take B3: the binding result in assay [1] is “binds”.

B4: RNF114 M-UBD construct (residues 137–228) (domain or fragment)
chain: not shown
notes: RNF114, human, residues 137-228 (RING domain and associated disordered regions removed); No tag cleavage described; also called tandem Di19-UIM module; source: E. coli Rosetta, purified (Cobalt resin, gel filtration)
As to B4, the binding result with Ub-Lys-TAMRA is “binds”.

B5: AF1521 macrodomain (natural protein, UniProt O28751 1-192, looked up)
chain: MEVLFEAKVGDITLKLAQGDITQYPAKAIVNAANKRLEHGGGVAYAIAKACAGDAGLYTEISKKAMREQFGRDYIDHGEVVVTPAMNLEERGIKYVFHTVGPICSGMWSEELKEKLYKAFLGPLEKAEEMGVESIAFPAVSAGIYGCDLEKVVETFLEAVKNFKGSAVKEVALVIYDRKSAEVALKVFERSL
notes: plasmid GST-AF1521 (gift from M. Nielsen); also called GST-AF1521; source: purified as previously reported (Kamata et al, 2019)
B5: the binding result (with Ub-Lys-TAMRA; in assay [1]) was “binds” throughout.

B6: RNF114 (wild type, full-length) (enzyme, human, UniProt Q9Y508 1-228, looked up)
chain: MAAQQRDCGGAAQLAGPAAEADPLGRFTCPVCLEVYEKPVQVPCGHVFCSACLQECLKPKKPVCGVCRSALAPGVRAVELERQIESTETSCHGCRKNFFLSKIRSHVATCSKYQNYIMEGVKATIKDASLQPRNVPNRYTFPCPYCPEKNFDQEGLVEHCKLFHSTDTKSVVCPICASMPWGDPNYRSANFREHIQRRHRFSYDTFVDYDVDEEDMMNQVLQRSIIDQ
notes: RNF114, human, RING-type E3 ubiquitin ligase; synthesised DNA cloned into pOPIN-B (N-terminal His-3C fusion); The methods describe no cleavage of the His-3C tag; also called WT RNF114; source: E. coli Rosetta, purified (Cobalt resin, gel filtration)
B6: the results for the Kd (with Ub-Lys-TAMRA; in assay [1]) were approximately 20 µM and 12.8 µM, respectively.

B7: RNF114 R198E (enzyme, human, UniProt Q9Y508 1-228, looked up)
chain: B6 chain with R198E
notes: Made by site-directed mutagenesis of pOPINB-RNF114 WT; no tag cleavage described; source: E. coli Rosetta, purified (Cobalt resin, gel filtration)
As to B7, the binding result (with Ub-Lys-TAMRA; in assay [1]) was “binds” each time.

B8: RNF114 F206E (enzyme, human, UniProt Q9Y508 1-228, looked up)
chain: B6 chain with F206E
notes: RNF114, human, with a mutation in the linker between Di19 and UIM (modelled contact with the Ub I36 patch); Made by site-directed mutagenesis of pOPINB-RNF114 WT; no tag cleavage described; source: E. coli Rosetta, purified (Cobalt resin, gel filtration)
As for B8, the binding result (with Ub-Lys-TAMRA; in assay [1]) was “binds” throughout.

For orientation: Kd means the concentration at which binding is half-saturated.
